Test results: paper PMC5037330, “Large-Scale Movements of IF3 and tRNA during Bacterial Translation Initiation” (Cell, 2016)

Molecular target: T1, IF3 Thermus thermophilus (Thermus thermophilus, UniProt Q5SKU2 1-171)
T1 construct: Translation initiation factor IF3 of Thermus thermophilus; residues 3 to 170 were modelled (N-terminal domain, helical linker, C-terminal domain); also called initiation factor 3; NTD; source: E. coli BL21(DE3), purified (same protocol as IF1: 65°C heat step, ion exchange, hydroxylapatite)
T1 sequence: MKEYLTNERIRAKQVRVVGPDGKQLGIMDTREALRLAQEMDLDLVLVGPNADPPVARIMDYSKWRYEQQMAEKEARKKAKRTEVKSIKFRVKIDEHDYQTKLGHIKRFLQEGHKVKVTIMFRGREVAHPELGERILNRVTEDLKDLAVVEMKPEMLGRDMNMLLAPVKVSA
Assay: cryo-EM structure; Sample 1 (without IF2): T. thermophilus 30S, IF1, IF3, mRNA and fMet-tRNA mixed 1:4:4:3:3, complex at 120 nM, 5 mM HEPES pH 7.5, 10 mM MgAc, 50 mM KCl, 10 mM NH4Cl, 6 mM 2-mercaptoethanol; put on grids without further purification; classes PIC-1A to PIC-4
Conditions: both partners purified

B1: IF1 Thermus thermophilus (natural protein)
chain: MAKEKDTIRTEGVVTEALPNATFRVKLDSGPEILAYISGKMRMHYIRILPGDRVVVEITPYDPTRGRIVYRK
notes: Translation initiation factor IF1 of Thermus thermophilus, expressed as in Carter et al., 2001; also called initiation factor 1; source: E. coli BL21(DE3), purified (65°C heat step, ion exchange, hydroxylapatite)
  binding result: binds
